Target: T1, KEAP1 (microscale thermophoresis assay) (UniProt Q14145 1-624)
T1 construct: KEAP1 as used in the microscale thermophoresis assay; May be the same as GST-KEAP1-WT
Experiment: MST; microscale thermophoresis; conditions in the Supplemental Methods, not shown

T1 sequence (Q14145 whole entry): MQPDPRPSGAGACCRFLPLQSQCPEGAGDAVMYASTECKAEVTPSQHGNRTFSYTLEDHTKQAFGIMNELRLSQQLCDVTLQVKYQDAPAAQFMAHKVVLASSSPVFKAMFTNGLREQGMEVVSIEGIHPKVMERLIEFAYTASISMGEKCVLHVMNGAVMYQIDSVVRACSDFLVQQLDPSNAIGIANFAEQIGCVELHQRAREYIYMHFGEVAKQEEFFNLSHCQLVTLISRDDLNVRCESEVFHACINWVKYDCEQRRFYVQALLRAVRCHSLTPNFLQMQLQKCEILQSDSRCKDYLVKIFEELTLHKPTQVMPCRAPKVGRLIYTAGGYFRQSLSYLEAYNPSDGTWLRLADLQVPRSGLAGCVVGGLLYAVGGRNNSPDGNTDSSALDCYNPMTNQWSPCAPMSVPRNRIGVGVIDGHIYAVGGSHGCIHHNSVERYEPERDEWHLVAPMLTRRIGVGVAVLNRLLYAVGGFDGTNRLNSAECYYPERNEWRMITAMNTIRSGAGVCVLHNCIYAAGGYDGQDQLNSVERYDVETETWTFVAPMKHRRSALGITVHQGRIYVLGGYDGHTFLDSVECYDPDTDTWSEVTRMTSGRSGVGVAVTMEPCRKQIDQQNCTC

Kd: 5.28 µM
B1: truncated NRF2 (NRF2^ΔDLG) (natural protein)
chain: MMDLELPPPGLPSQQDMDLIDILWRQDIVSREVFDFSQRRKEYELEKQKKLEKERQEQLQKEQEKAFFAQLQLDEETGEFLPIQPAQHIQSETSGSANYSQVAHIPKSDALYFDDCMQLLAQTFPFVDDNEVSSATFQSLVPDIPGHIESPVFIATNQAQSPETSVAQVAPVDLDGMQQDIEQVWEELLSIPELQCLNIENDKLVETTMVPSPEAKLTEVDNYHFYSSIPSMEKEVGNCSPHFLNAFEDSFSSILSTEDPNQLTVNSLNSDATVNTDFGDEFYSAFIAEPSISNSMPSPATLSHSLSELLNGPIDVSDLSLCKAFNQNHPESTAEFNDSDSGISLNTSPSVASPEHSVESSSYGDTLLGLSDSEVEELDSAPGSVKQNGPKTPVHSSGDMVQPLSPSQGQSTHVHDAQCENTPEKELPVSPGHRKTPFTKDKHSSRLEAHLTRDELRAKALHIPFPVEKIINLPVVDFNEMMSKEQFNEAQLALIRDIRRRGKNKVAAQNCRKRKLENIVELEQDLDHLKDEKEKLLKEKGENDKSLHLLKKQLSTLYLEVFSMLRDEDGKPYSPSEYSLQQTRDGNVFLVPKSKKPDVKKN

— PMC9888386 (The Journal of Clinical Investigation, 2023)
